Source: US20200308270A1

Key:
[1] = target: human recombinant FcgammaR receptor CD32bF (human) (UniProt P31994); experiment: SPR (ProteOn), Mab captured via anti-human Fc, FcgammaR analyte
[2] = target: human recombinant FcgammaR receptor CD32aH (human) (UniProt P12318); experiment: as above
human recombinant FcgammaR receptor CD32aH (human), sequence (P12318 34-217): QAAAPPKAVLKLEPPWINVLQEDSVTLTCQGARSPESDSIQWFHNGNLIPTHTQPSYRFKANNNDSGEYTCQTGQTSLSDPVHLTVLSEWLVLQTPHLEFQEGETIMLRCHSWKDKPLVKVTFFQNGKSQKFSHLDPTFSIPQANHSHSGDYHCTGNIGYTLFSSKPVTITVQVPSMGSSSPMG

CAT-2200 wild-type lambda Mab (antibody), sequence (heavy): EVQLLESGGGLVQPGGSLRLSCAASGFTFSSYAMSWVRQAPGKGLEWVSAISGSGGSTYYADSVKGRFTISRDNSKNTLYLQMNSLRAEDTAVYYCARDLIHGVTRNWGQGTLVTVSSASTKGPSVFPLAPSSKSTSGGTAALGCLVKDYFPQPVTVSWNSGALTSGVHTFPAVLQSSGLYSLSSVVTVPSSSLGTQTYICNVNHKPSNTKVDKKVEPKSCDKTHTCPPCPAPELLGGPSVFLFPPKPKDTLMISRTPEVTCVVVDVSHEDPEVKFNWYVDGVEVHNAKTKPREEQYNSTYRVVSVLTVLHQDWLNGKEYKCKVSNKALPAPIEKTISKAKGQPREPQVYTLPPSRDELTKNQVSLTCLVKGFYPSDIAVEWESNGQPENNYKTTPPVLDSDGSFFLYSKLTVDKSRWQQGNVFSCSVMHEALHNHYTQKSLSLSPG
CAT-2200 wild-type lambda Mab (antibody), sequence (light): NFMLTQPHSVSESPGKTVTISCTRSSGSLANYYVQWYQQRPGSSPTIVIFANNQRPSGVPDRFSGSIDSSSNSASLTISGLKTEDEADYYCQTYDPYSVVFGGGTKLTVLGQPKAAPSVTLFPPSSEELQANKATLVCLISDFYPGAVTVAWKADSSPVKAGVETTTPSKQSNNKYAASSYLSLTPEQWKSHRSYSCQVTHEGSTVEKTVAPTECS

Kd [1]: 2900 nM
Kd [2]: 700 nM
Substance: CAT-2200 wild-type lambda Mab (antibody)
